Source: publication PMC4191429, “Interactions of the yeast mitochondrial RNA polymerase with the +1 and +2 promoter bases dictate transcription initiation efficiency”

What was measured:
Conditions in all cases: protein: recombinant;recombinant; tags: Ni2+ column purified; copies: 1;1; label: 2-aminopurine
[1] = molecular target: T1, Rpo41 (mitochondrial RNA polymerase);Mtf1 (mitochondrial transcription initiation factor) (Saccharomyces cerevisiae;Saccharomyces …, UniProt P13433;P14908 1-1351;2-341, |); assay: 2-aminopurine fluorescence; ATP; 2-AP assay buffer, salt, pH and temperature not in the material (transcription assays at 25 C)
[2] = molecular target: T1, Rpo41 (mitochondrial RNA …); assay: 2-aminopurine fluorescence; no NTP; 2-AP assay buffer, salt, pH and temperature not in the material (transcription assays at 25 C)
[3] = molecular target: T1, Rpo41 (mitochondrial RNA …); assay: 2-aminopurine fluorescence; ATP+GTP; 2-AP assay buffer, salt, pH and temperature not in the material (transcription assays at 25 C)

T1 sequence (P13433 whole entry, chain 1 of 2): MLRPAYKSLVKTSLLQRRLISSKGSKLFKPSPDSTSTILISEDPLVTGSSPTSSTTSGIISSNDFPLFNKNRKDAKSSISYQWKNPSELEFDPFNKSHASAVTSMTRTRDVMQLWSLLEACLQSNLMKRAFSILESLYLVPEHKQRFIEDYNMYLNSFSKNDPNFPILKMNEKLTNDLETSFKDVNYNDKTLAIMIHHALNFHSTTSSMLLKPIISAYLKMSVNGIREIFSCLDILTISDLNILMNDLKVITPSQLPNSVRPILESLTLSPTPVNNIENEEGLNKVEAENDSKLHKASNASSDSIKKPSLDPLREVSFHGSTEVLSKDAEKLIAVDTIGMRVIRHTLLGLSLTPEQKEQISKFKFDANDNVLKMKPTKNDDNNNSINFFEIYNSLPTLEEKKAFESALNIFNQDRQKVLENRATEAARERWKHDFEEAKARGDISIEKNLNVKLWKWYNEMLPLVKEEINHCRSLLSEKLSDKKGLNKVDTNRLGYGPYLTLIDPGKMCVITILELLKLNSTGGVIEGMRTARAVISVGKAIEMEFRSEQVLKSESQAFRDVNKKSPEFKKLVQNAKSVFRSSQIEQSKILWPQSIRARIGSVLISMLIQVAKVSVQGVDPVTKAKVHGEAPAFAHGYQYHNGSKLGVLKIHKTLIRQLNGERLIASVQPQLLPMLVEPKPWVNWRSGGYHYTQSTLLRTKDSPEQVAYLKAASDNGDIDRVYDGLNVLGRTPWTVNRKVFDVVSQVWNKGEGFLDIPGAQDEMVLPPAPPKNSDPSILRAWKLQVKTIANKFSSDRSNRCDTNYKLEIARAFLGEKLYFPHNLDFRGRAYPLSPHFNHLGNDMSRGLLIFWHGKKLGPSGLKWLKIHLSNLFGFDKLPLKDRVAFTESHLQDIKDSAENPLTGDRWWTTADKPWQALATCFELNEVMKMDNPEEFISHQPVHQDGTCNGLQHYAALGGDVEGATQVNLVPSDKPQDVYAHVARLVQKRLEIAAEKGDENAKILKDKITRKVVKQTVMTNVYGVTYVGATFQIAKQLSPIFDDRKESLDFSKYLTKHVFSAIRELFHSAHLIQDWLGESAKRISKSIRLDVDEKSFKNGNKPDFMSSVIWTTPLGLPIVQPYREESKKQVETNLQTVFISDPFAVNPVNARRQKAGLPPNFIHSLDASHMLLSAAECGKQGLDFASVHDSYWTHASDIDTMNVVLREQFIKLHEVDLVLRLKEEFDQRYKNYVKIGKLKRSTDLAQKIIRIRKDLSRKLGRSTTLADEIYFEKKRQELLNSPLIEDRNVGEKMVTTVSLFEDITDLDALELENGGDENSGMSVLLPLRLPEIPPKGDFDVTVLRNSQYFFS
T1 sequence (P14908 2-341, chain 2 of 2): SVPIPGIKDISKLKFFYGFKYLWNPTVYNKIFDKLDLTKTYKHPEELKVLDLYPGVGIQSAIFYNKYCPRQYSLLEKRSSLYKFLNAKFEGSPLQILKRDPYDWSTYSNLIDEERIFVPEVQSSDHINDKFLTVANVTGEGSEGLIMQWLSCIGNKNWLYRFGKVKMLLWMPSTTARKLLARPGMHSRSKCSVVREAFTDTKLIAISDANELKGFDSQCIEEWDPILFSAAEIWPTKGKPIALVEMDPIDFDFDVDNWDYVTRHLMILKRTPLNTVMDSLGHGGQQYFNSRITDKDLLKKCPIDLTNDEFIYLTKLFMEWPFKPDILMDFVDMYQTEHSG

Binder | binding signal [1] | binding signal [2] | binding signal [3]
15S rRNA promoter (+1+2 AA), 2-AP at -1 template (dsDNA, 2-aminopurine at -1 template) DNA 1: ATAATTTATTTATTATTATATAAGTAATAAATAATAGTTTTATCT DNA 2: AGATAAAACTATTATTTATTACTTATATAATAATAAATAAATTAT | ~4 further fold 2-AP fluorescence increase over the complex without NTP | ~5 fold 2-AP fluorescence increase | –
21S rRNA promoter (+1+2 AG), 2-AP at -1 template (dsDNA, 2-aminopurine at -1 template) DNA 1: TATTATTATTATTATATATATAAGTAGTAAAAAGTAGAATAATCT DNA 2: AGATTATTCTACTTTTTACTACTTATATATATAATAATAATAATA | – | ~5 fold 2-AP fluorescence increase | ~4 further fold 2-AP fluorescence increase over the complex without NTP
